According to publication PMC9263355:

How the values were obtained:
[1] = biological target: 4-1BB on CD3/CD28-activated human CD4 T cells (human (endogenous in CD4 T cells)) (UniProt Q07011)
[2] = biological target: recombinant human galectin-8N (human); experiment: fluorescence polarisation; fluorescence anisotropy in solution, by inhibition: fixed galectin (0.2-2.5 µM) with 0.02 µM of its fluorescent probe, in the presence of 0.07-[…] (rh)4-1BB Fc or (rh)IgG1 Fc; average Kd from the points with ≥ 15% inhibition
[3] = biological target: recombinant human galectin-9C (human); experiment: as above
[4] = biological target: recombinant human galectin-9N (human); experiment: as above

recombinant human (rh)4-1BB Fc chimera protein, sequence (Q07011 24-186, change not shown): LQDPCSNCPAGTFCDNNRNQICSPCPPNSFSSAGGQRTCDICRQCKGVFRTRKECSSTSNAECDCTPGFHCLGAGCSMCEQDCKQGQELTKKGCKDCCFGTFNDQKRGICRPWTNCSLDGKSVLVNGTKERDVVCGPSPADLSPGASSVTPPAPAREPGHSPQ
Gal-3 in normal human plasma, sequence (P17931 whole entry): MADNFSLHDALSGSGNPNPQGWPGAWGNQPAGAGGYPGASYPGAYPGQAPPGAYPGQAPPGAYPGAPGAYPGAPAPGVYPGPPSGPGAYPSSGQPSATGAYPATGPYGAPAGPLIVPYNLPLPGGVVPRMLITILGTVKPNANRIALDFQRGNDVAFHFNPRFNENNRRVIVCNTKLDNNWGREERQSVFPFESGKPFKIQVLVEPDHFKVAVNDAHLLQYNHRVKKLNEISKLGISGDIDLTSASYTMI
4-1BB on CD3/CD28-activated human CD4 T cells (human (endogenous in CD4 T cells)), sequence (Q07011 24-255): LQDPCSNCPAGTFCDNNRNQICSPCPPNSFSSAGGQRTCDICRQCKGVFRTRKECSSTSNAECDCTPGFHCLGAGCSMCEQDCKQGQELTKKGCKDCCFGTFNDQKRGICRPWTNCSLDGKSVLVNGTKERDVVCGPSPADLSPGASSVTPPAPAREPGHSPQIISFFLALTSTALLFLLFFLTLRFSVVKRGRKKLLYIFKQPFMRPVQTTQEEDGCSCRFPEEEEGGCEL

Row | fold decrease in fraction of 4-1BB+CD4+ T cells that produced TNFα upon 4-1BBL stimulation, after pre-incubation of activated CD4 T-cells with plasma [1] [fold] | Kd [2] [nM] | Kd [3] [nM] | Kd [4] [nM] | Substance
1 | 3.8 | – | – | – | Gal-3 in normal human plasma (from UniProt P17931 1-250) (natural protein)
2 | – | 3590 | 2240 | 1390 | recombinant human (rh)4-1BB Fc chimera protein (from UniProt Q07011 24-186) (Fc fusion)
